For assay [1], the target named is SARS-CoV-2 Spike Trimer (B.1.1.529/Omicron) (SARS-CoV-2) (UniProt P0DTC2). Briefly: single-molecule force spectroscopy.
In assay [2] the target is SARS-CoV-2 Spike protein Trimer (Wild type) (SARS-CoV-2) (UniProt P0DTC2). Put plainly: single-molecule force spectroscopy.

In assay [1], “H84T-banana lectin (H84T-BanLec) (from UniProt Q8L5H4 1-141) (designed binder)” displayed an IC50 of 2.6 nM. In assay [2], this substance returned an IC50 of 5.2 nM, a koff of 0.046 s⁻¹ and a kon of 99800 M⁻¹ s⁻¹.

One may read the IC50 as the concentration that gives 50% inhibition. In general, koff refers to the rate constant with which the complex falls apart. Read a high koff as a short-lived complex. One may read the kon as the second-order rate constant of association. The low end stands for slow association, the high end for fast association.

The values are drawn from paper PMC9519379 (Cell Reports Medicine, 2022).
